Biological target: GST-TopBP1 (aa 32-1522) His, recombinant (UniProt Q92547 32-1522)
Experiment: pull-down

Chain of GST-TopBP1 (aa 32-1522) His, recombinant (Q92547 32-1522): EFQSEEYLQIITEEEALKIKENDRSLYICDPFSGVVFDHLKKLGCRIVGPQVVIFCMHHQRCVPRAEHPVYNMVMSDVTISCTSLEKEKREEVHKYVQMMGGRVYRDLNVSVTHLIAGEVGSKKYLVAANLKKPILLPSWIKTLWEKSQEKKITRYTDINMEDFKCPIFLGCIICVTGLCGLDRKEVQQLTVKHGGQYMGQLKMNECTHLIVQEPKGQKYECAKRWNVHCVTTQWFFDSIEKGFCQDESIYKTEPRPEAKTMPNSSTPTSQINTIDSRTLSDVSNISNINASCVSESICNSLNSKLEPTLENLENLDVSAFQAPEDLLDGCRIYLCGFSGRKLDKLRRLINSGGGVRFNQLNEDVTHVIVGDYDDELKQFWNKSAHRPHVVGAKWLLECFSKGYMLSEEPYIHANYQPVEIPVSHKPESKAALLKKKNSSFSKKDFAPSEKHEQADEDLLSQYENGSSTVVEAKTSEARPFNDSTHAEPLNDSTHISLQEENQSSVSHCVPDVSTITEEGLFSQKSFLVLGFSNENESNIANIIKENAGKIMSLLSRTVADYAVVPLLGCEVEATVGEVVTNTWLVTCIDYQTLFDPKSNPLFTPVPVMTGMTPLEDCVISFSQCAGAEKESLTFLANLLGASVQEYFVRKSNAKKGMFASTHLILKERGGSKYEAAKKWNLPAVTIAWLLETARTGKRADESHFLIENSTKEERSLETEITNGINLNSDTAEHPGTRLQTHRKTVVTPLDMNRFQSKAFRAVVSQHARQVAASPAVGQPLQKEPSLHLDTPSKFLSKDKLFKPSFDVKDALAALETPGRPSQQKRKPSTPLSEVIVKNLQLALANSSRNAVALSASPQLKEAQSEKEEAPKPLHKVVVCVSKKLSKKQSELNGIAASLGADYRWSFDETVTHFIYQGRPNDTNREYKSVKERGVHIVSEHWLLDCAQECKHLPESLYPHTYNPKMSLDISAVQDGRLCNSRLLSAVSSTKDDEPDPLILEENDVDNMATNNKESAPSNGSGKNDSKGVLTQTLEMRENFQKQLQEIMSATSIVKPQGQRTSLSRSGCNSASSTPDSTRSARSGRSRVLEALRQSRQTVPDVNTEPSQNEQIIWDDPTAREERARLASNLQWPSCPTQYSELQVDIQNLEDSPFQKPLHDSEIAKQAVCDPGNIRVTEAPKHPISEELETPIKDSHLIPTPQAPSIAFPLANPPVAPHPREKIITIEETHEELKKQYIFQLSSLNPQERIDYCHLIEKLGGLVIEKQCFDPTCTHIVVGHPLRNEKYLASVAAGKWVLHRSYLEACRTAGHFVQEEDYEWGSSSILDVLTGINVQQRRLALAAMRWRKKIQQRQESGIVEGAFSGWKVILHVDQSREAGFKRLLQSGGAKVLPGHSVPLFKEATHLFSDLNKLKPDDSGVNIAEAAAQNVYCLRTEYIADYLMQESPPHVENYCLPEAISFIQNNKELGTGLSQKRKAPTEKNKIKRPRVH

B1: His-E2-S23D (amino acids 1-200), recombinant (domain or fragment, human papillomavirus 16 (HPV16), UniProt P03120 1-200, looked up)
chain: METLCQRLNVCQDKILTHYENDDTDLRDHIDYWKHMRLECAIYYKAREMGFKHINHQVVPTLAVSKNKALQAIELQLTLETIYNSQYSNEKWTLQDVSLEVYLTAPTGCIKKHGYTVEVQFDGDICNTMHYTNWTHIYICEEASVTVVEGQVDYYGLYYVHEGIRTYFVQFKDDAEKYSKNKVWEVHAGGQVILCPTSVF
B1: binds.
